Some results are limits rather than exact numbers.

Assay [1] concerns the target β-sliding processivity clamp (Escherichia coli) (UniProt P0A988).
Assay [2] shares this target. This is another data set of the same source.
Assay [3] shares this target. This is another data set of the same source.
For assay [4] the target is unchanged. This is another data set of the same source.
For assay [5] the target is unchanged. This is another data set of the same source.
Assay [6] has the same target. The source holds these as a separate data set.

Chain of β-sliding processivity clamp (Escherichia coli) (P0A988 whole entry): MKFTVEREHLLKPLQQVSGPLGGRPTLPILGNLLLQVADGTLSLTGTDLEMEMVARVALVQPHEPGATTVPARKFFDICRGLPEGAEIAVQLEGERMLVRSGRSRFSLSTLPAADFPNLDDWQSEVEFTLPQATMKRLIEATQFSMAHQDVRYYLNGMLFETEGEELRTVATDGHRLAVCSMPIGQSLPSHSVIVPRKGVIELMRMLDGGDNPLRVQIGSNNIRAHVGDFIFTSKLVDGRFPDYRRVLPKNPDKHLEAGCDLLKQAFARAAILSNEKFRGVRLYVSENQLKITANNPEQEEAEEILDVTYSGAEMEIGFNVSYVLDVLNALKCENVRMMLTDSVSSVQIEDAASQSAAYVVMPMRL
Chain of pol V Mut WT (UmuD’2C-RecA-ATP/ATPγS) (P04152 whole entry): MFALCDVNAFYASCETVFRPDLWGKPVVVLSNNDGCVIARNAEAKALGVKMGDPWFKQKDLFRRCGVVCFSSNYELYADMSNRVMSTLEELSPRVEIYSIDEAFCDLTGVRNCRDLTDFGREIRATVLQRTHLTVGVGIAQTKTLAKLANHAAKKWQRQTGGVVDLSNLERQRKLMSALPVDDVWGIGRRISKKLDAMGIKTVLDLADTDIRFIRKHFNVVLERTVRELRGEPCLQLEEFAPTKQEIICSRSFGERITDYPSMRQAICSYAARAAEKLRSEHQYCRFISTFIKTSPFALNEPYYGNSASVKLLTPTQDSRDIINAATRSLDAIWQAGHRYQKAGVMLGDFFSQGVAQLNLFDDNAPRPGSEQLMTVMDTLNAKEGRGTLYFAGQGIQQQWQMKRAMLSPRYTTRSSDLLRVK
Chain of pol V Mut WT (UmuD’2C-RecA-ATP/ATPγS) (P0AG11 25-139): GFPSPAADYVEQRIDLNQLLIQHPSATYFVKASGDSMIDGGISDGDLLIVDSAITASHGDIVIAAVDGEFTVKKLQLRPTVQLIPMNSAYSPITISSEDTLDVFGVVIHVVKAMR
Chain of pol V Mut WT (UmuD’2C-RecA-ATP/ATPγS) (P0A7G6 whole entry): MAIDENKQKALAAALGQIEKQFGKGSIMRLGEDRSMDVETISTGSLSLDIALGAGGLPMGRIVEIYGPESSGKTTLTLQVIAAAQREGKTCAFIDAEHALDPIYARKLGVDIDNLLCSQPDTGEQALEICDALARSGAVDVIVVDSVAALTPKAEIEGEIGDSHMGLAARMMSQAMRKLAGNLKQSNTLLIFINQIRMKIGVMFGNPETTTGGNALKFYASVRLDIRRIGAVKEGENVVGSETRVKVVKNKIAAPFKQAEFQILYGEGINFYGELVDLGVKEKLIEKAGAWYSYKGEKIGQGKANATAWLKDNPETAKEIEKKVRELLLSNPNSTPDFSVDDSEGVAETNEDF

In assay [1], “pol V Mut WT (UmuD’2C-RecA-ATP/ATPγS) (from UniProt P04152 1-422; P0AG11 25-139; P0A7G6 1-353) (complex)” yielded a percent of primer extended (% PE) on undamaged circular p/t DNA by pol V Mut WT-ATPγS with β-clamp and γ-complex, 15-120 min (~5% at 60 min without β) of over 40%. This substance also returned a percent of primer extended (% PE) on undamaged circular p/t DNA by pol V Mut WT-ATP with β-clamp and γ-complex, 15-120 min (about 1% without β) in assay [2] of 5%. In assay [3], this substance returned a translesion synthesis past an abasic site 3 nt from the primer end, % PE, pol V Mut WT with dATP, ATPγS and β/γ, up to 120 min of 35%. The substance also returned a fold increase of DNA elongation rate by β on undamaged DNA, pol V Mut WT-ATP in assay [4] of 5 fold.

As for “pol V Mut E38K/∆C17 (UmuD’2C-RecA E38K/∆C17-ATP/ATPγS) (from UniProt P04152 1-422; P0AG11 25-139; P0A7G6 1-353) (complex)”, the percent of primer extended (% PE) on undamaged circular p/t DNA by pol V Mut E38K/ΔC17-ATP with β-clamp and γ-complex, 15-120 min (10% at 120 min without β) in assay [5] came to 77%. In assay [6], this substance yielded a percent of primer extended (% PE) on undamaged circular p/t DNA by pol V Mut E38K/ΔC17-ATPγS with β-clamp and γ-complex (γ-complex stays on β with ATPγS) of 42%. In assay [4], the fold increase of DNA elongation rate by β on undamaged DNA, pol V Mut E38K/ΔC17-ATP was 7 fold.

Values taken from article PMC8147279.
